# Reference: publication PMC9482650, “Quantitative fragmentomics allow affinity mapping of interactomes” (Nature Communications, 2022)
# T1: APBA2_1, Q99767
# T1 sequence (Q99767 563-664, limits assumed, looked up): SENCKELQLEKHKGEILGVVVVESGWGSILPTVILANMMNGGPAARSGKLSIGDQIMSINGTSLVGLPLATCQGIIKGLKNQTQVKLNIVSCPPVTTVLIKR
# T2: DFNB31_3, Q9P202
# T2 sequence (Q9P202 811-907, limits assumed, looked up): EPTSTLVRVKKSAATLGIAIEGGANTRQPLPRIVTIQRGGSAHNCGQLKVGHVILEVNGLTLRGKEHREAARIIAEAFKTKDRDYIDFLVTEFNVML
# T3: DLG3_3, Q92796
# T3 sequence (Q92796 374-475, limits assumed, looked up): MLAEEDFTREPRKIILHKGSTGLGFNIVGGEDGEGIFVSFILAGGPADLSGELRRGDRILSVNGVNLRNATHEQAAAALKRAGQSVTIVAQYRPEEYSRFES
# T4: FRMPD1, Q5SYB0
# T4 sequence (Q5SYB0 52-145, limits assumed, looked up): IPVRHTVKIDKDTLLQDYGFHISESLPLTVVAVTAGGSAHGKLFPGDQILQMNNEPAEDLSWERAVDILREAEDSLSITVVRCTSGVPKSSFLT
# T5: GRIP1_2, Q9Y3R0
# T5 sequence (Q9Y3R0 145-248, limits assumed, looked up): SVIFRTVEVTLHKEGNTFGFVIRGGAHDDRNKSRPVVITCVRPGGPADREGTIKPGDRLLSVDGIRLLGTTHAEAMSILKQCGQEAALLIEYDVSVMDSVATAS
# T6: LNX2_3, Q8N448
# T6 sequence (Q8N448 463-564, limits assumed, looked up): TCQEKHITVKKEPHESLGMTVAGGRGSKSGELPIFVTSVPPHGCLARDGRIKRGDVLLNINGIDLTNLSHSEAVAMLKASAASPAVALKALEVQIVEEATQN
# T7: MPDZ_12, O75970
# T7 sequence (O75970 1857-1958, limits assumed, looked up): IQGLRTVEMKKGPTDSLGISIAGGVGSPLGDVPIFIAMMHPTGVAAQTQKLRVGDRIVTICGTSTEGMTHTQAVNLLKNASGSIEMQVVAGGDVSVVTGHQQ
# T8: MPDZ_5, O75970
# T8 sequence (O75970 695-796, limits assumed, looked up): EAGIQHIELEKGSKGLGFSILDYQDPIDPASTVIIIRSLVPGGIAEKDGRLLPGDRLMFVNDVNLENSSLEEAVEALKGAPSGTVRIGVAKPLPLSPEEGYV
# T9: PDZD2_2, O15018
# T9 sequence (O15018 329-429, limits assumed, looked up): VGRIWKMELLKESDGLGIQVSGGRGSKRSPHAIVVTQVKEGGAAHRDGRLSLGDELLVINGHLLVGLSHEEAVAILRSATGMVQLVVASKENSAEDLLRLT
# T10: PTPN13_1, Q12923
# T10 sequence (Q12923 1088-1188, limits assumed, looked up): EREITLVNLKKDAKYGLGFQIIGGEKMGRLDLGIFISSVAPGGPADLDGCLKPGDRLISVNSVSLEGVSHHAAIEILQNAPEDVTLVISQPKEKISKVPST
# T11: RAPGEF6, Q8TEU7
# T11 sequence (Q8TEU7 525-625, limits assumed, looked up): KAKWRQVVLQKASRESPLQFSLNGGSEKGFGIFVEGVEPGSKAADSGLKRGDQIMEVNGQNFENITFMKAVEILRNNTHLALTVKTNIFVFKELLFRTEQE
# T12: RHPN1, Q8TCX5
# T12 sequence (Q8TCX5 508-602, limits assumed, looked up): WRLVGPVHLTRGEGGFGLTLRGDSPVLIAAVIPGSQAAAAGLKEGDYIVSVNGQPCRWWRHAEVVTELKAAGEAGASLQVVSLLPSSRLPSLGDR
# Target: AHNAK1, Q09666
# Experiment: holdup assay
# Design: key: below the threshold = too weak to quantify, mostly under pKd 3.1 to 4
# Conditions: plain residues with an end cap or a label only (N-terminal biotin on a linker: ado-ado)
# Sequence of AHNAK1, Q09666 (Q09666 4-100): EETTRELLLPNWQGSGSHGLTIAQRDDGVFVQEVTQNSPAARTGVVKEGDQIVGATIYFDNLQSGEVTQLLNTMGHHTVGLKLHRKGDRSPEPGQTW
row,pKd,Binder
1,below the threshold,"NLSIEKETKL [ASNSD1, Q9NWL6]"
2,below the threshold,"EVNETDDTKM [KCNJ1, P48048]"

# Target: T1, APBA2_1, Q99767
# Experiment: holdup assay
# Design: key: below the threshold = too weak to quantify, mostly under pKd 3.1 to 4
# Conditions: plain residues with an end cap or a label only (N-terminal biotin on a linker: ado-ado)
row,pKd,Binder
1,below the threshold,"NLSIEKETKL [ASNSD1, Q9NWL6]"
2,below the threshold,"EVNETDDTKM [KCNJ1, P48048]"

# Target: T2, DFNB31_3, Q9P202
# Experiment: holdup assay
# Design: key: below the threshold = too weak to quantify, mostly under pKd 3.1 to 4
# Conditions: plain residues with an end cap or a label only (N-terminal biotin on a linker: ado-ado)
row,pKd,Binder
1,3.52,"NLSIEKETKL [ASNSD1, Q9NWL6]"
2,below the threshold,"EVNETDDTKM [KCNJ1, P48048]"

# Target: DLG2_2, Q15700
# Experiment: holdup assay
# Design: key: below the threshold = too weak to quantify, mostly under pKd 3.1 to 4
# Conditions: plain residues with an end cap or a label only (N-terminal biotin on a linker: ado-ado)
# Sequence of DLG2_2, Q15700 (Q15700 189-283): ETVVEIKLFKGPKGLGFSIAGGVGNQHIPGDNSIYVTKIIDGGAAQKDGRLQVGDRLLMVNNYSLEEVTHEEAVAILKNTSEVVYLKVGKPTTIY
row,pKd,Binder
1,3.5,"NLSIEKETKL [ASNSD1, Q9NWL6]"
2,below the threshold,"EVNETDDTKM [KCNJ1, P48048]"

# Target: T3, DLG3_3, Q92796
# Experiment: holdup assay
# Design: key: below the threshold = too weak to quantify, mostly under pKd 3.1 to 4
# Conditions: plain residues with an end cap or a label only (N-terminal biotin on a linker: ado-ado)
row,pKd,Binder
1,below the threshold,"NLSIEKETKL [ASNSD1, Q9NWL6]"
2,below the threshold,"EVNETDDTKM [KCNJ1, P48048]"

# Target: T4, FRMPD1, Q5SYB0
# Experiment: holdup assay
# Design: key: below the threshold = too weak to quantify, mostly under pKd 3.1 to 4
# Conditions: plain residues with an end cap or a label only (N-terminal biotin on a linker: ado-ado)
row,pKd,Binder
1,below the threshold,"NLSIEKETKL [ASNSD1, Q9NWL6]"
2,below the threshold,"EVNETDDTKM [KCNJ1, P48048]"

# Target: FRMPD2_3, Q68DX3
# Experiment: holdup assay
# Design: key: below the threshold = too weak to quantify, mostly under pKd 3.1 to 4
# Conditions: plain residues with an end cap or a label only (N-terminal biotin on a linker: ado-ado)
# Sequence of FRMPD2_3, Q68DX3 (Q68DX3 1073-1166): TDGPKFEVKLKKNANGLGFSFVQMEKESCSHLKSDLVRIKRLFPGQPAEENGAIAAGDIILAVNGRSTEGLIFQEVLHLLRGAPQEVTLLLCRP
row,pKd,Binder
1,below the threshold,"NLSIEKETKL [ASNSD1, Q9NWL6]"
2,below the threshold,"EVNETDDTKM [KCNJ1, P48048]"

# Target: T5, GRIP1_2, Q9Y3R0
# Experiment: holdup assay
# Design: key: below the threshold = too weak to quantify, mostly under pKd 3.1 to 4
# Conditions: plain residues with an end cap or a label only (N-terminal biotin on a linker: ado-ado)
row,pKd,Binder
1,below the threshold,"NLSIEKETKL [ASNSD1, Q9NWL6]"
2,below the threshold,"EVNETDDTKM [KCNJ1, P48048]"

# Target: GRIP2_3, Q9C0E4
# Experiment: holdup assay
# Design: key: below the threshold = too weak to quantify, mostly under pKd 3.1 to 4
# Conditions: plain residues with an end cap or a label only (N-terminal biotin on a linker: ado-ado)
# Sequence of GRIP2_3, Q9C0E4 (Q9C0E4 238-339): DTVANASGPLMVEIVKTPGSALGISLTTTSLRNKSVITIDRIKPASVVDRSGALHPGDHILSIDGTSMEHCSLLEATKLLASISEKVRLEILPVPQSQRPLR
row,pKd,Binder
1,below the threshold,"NLSIEKETKL [ASNSD1, Q9NWL6]"
2,3.69,"EVNETDDTKM [KCNJ1, P48048]"

# Target: GRIP2_7, Q9C0E4
# Experiment: holdup assay
# Design: key: below the threshold = too weak to quantify, mostly under pKd 3.1 to 4
# Conditions: plain residues with an end cap or a label only (N-terminal biotin on a linker: ado-ado)
# Sequence of GRIP2_7, Q9C0E4 (Q9C0E4 934-1023): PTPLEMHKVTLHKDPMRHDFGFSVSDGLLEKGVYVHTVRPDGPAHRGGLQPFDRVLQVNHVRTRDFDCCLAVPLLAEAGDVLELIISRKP
row,pKd,Binder
1,below the threshold,"NLSIEKETKL [ASNSD1, Q9NWL6]"
2,below the threshold,"EVNETDDTKM [KCNJ1, P48048]"

# Target: HTRA2, O43464
# Experiment: holdup assay
# Design: key: below the threshold = too weak to quantify, mostly under pKd 3.1 to 4
# Conditions: plain residues with an end cap or a label only (N-terminal biotin on a linker: ado-ado)
# Sequence of HTRA2, O43464 (O43464 355-458): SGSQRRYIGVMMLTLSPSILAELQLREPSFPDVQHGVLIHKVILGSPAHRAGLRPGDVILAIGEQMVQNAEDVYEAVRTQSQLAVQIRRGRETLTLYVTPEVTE
row,pKd,Binder
1,below the threshold,"NLSIEKETKL [ASNSD1, Q9NWL6]"
2,below the threshold,"EVNETDDTKM [KCNJ1, P48048]"

# Target: Inadl_8, Q8NI35
# Experiment: holdup assay
# Design: key: below the threshold = too weak to quantify, mostly under pKd 3.1 to 4
# Conditions: plain residues with an end cap or a label only (N-terminal biotin on a linker: ado-ado)
# Sequence of Inadl_8, Q8NI35 (Q8NI35 1425-1530): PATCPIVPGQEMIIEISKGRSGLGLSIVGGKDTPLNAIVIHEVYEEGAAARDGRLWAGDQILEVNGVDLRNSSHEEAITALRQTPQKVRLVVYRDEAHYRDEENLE
row,pKd,Binder
1,below the threshold,"NLSIEKETKL [ASNSD1, Q9NWL6]"
2,below the threshold,"EVNETDDTKM [KCNJ1, P48048]"

# Target: LNX1_2, Q8TBB1
# Experiment: holdup assay
# Design: key: below the threshold = too weak to quantify, mostly under pKd 3.1 to 4
# Conditions: plain residues with an end cap or a label only (N-terminal biotin on a linker: ado-ado)
# Sequence of LNX1_2, Q8TBB1 (Q8TBB1 371-470): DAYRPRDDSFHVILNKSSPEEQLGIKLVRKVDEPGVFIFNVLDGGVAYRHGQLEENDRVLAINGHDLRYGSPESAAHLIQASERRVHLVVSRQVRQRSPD
row,pKd,Binder
1,below the threshold,"NLSIEKETKL [ASNSD1, Q9NWL6]"
2,below the threshold,"EVNETDDTKM [KCNJ1, P48048]"

# Target: T6, LNX2_3, Q8N448
# Experiment: holdup assay
# Design: key: below the threshold = too weak to quantify, mostly under pKd 3.1 to 4
# Conditions: plain residues with an end cap or a label only (N-terminal biotin on a linker: ado-ado)
row,pKd,Binder
1,below the threshold,"NLSIEKETKL [ASNSD1, Q9NWL6]"
2,below the threshold,"EVNETDDTKM [KCNJ1, P48048]"

# Target: MAGI2_2, Q86UL8
# Experiment: holdup assay
# Design: key: below the threshold = too weak to quantify, mostly under pKd 3.1 to 4
# Conditions: plain residues with an end cap or a label only (N-terminal biotin on a linker: ado-ado)
# Sequence of MAGI2_2, Q86UL8 (Q86UL8 410-522): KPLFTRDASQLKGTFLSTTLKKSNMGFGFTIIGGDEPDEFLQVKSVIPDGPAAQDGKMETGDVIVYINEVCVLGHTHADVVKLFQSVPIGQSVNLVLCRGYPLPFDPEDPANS
row,pKd,Binder
1,below the threshold,"NLSIEKETKL [ASNSD1, Q9NWL6]"
2,below the threshold,"EVNETDDTKM [KCNJ1, P48048]"

# Target: T7, MPDZ_12, O75970
# Experiment: holdup assay
# Design: key: below the threshold = too weak to quantify, mostly under pKd 3.1 to 4
# Conditions: plain residues with an end cap or a label only (N-terminal biotin on a linker: ado-ado)
row,pKd,Binder
1,3.56,"NLSIEKETKL [ASNSD1, Q9NWL6]"
2,below the threshold,"EVNETDDTKM [KCNJ1, P48048]"

# Target: T8, MPDZ_5, O75970
# Experiment: holdup assay
# Design: key: below the threshold = too weak to quantify, mostly under pKd 3.1 to 4
# Conditions: plain residues with an end cap or a label only (N-terminal biotin on a linker: ado-ado)
row,pKd,Binder
1,below the threshold,"NLSIEKETKL [ASNSD1, Q9NWL6]"
2,below the threshold,"EVNETDDTKM [KCNJ1, P48048]"

# Target: NHERF4_1, Q86UT5-2
# Experiment: holdup assay
# Design: key: below the threshold = too weak to quantify, mostly under pKd 3.1 to 4
# Conditions: plain residues with an end cap or a label only (N-terminal biotin on a linker: ado-ado)
# Sequence of NHERF4_1, Q86UT5-2 (Q86UT5 other isoform, or with tags, fused parts or gaps): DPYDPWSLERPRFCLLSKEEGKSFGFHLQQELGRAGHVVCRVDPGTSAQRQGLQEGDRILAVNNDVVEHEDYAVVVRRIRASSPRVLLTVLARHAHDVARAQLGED
row,pKd,Binder
1,3.87,"NLSIEKETKL [ASNSD1, Q9NWL6]"
2,below the threshold,"EVNETDDTKM [KCNJ1, P48048]"

# Target: NOS1, P29475
# Experiment: holdup assay
# Design: key: below the threshold = too weak to quantify, mostly under pKd 3.1 to 4
# Conditions: plain residues with an end cap or a label only (N-terminal biotin on a linker: ado-ado)
# Sequence of NOS1, P29475 (P29475 9-101): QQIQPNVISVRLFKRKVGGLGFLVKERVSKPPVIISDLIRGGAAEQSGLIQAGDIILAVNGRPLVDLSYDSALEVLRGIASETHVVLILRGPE
row,pKd,Binder
1,below the threshold,"NLSIEKETKL [ASNSD1, Q9NWL6]"
2,below the threshold,"EVNETDDTKM [KCNJ1, P48048]"

# Target: T9, PDZD2_2, O15018
# Experiment: holdup assay
# Design: key: below the threshold = too weak to quantify, mostly under pKd 3.1 to 4
# Conditions: plain residues with an end cap or a label only (N-terminal biotin on a linker: ado-ado)
row,pKd,Binder
1,3.83,"NLSIEKETKL [ASNSD1, Q9NWL6]"
2,3.5,"EVNETDDTKM [KCNJ1, P48048]"

# Target: T10, PTPN13_1, Q12923
# Experiment: holdup assay
# Design: key: below the threshold = too weak to quantify, mostly under pKd 3.1 to 4
# Conditions: plain residues with an end cap or a label only (N-terminal biotin on a linker: ado-ado)
row,pKd,Binder
1,below the threshold,"NLSIEKETKL [ASNSD1, Q9NWL6]"
2,below the threshold,"EVNETDDTKM [KCNJ1, P48048]"

# Target: T11, RAPGEF6, Q8TEU7
# Experiment: holdup assay
# Design: key: below the threshold = too weak to quantify, mostly under pKd 3.1 to 4
# Conditions: plain residues with an end cap or a label only (N-terminal biotin on a linker: ado-ado)
row,pKd,Binder
1,below the threshold,"NLSIEKETKL [ASNSD1, Q9NWL6]"
2,below the threshold,"EVNETDDTKM [KCNJ1, P48048]"

# Target: T12, RHPN1, Q8TCX5
# Experiment: holdup assay
# Design: key: below the threshold = too weak to quantify, mostly under pKd 3.1 to 4
# Conditions: plain residues with an end cap or a label only (N-terminal biotin on a linker: ado-ado)
row,pKd,Binder
1,4.76,"NLSIEKETKL [ASNSD1, Q9NWL6]"
2,below the threshold,"EVNETDDTKM [KCNJ1, P48048]"

# Target: SNX27, Q96L92
# Experiment: holdup assay
# Design: key: below the threshold = too weak to quantify, mostly under pKd 3.1 to 4
# Conditions: plain residues with an end cap or a label only (N-terminal biotin on a linker: ado-ado)
row,pKd,Binder
1,5.65,"NLSIEKETKL [ASNSD1, Q9NWL6]"
2,4.6,"EVNETDDTKM [KCNJ1, P48048]"
